The values below come from IntAct's records for PubMed 25477193.

The target in assay [1] is kap3_human PRKAR2B (UniProt P31323).
Assay [2] has the same target. This is another data set of the same source.

Regarding “cAMP-dependent protein kinase catalytic subunit alpha (Homo sapiens) (from UniProt P17612) L206R”, the results for the “effect of a mutation on the interaction” value with kap3_human PRKAR2B [1] and with kap3_human PRKAR2B [2] were “disrupting interaction strength” and “decreasing interaction strength”, respectively.
